Measurements: paper PMC3879392, “Mutant LV^476-7AA of A-subunit of Enterococcus hirae V1-ATPase: High affinity of A3B3 complex to DF axis and low ATPase activity” (SpringerPlus, 2013)

Test system: Nc1ncnc2c1ncn2[C@@H]1O[C@H](COP(=O)(O)OP(=O)(O)OP(=O)(O)O)[C@@H](O)[C@H]1O
Assay: purified protein
Settings: 25 mM MES-Tris pH 6.5, 4 mM MgSO4, 10% glycerol, 25 C

E. hirae V1-ATPase (A3B3DF complex) (Enterococcus hirae ATCC 9790)
Km: 400 µM
